Reference: publication PMC4694753 (Molecular Biology of the Cell, 2016)

Target: GFP-VASP (UniProt P50552 1-380)
Assay: co-IP

GFP-VASP, sequence (P50552 whole entry): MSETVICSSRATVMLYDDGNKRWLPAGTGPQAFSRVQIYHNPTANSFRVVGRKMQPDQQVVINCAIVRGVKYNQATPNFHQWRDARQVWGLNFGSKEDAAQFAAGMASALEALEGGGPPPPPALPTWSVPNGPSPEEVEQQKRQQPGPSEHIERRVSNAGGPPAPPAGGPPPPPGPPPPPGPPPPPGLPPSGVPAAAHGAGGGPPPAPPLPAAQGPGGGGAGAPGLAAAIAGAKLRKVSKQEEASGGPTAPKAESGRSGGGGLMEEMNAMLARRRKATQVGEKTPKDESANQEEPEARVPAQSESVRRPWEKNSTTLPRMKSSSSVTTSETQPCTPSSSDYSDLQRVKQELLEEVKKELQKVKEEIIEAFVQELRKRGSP

B1: endogenous GRASP65 (natural protein)
chain: not shown
  amount coimmunoprecipitated, % relative to GFP-Mena: 8.2 ± 3.3%
